Substitutions are numbered along the chain they refer to.

The labels stand for the following.
T1: denatured granulysin (10His tag, expressed in 293T cells, run on denaturing SDS-PAGE) (UniProt P22749 23-145, limits assumed)
T1 construct: Same protein as native granulysin but denatured; probed on a blot with the test antibodies and anti-human-HRP; not shown: 10His tag
T1 sequence (looked up): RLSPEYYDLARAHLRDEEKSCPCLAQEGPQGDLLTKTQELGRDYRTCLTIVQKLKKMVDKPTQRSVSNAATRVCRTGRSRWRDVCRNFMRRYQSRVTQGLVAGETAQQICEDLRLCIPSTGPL

T2: granulysin mutant RRRR97/100/104/108AAAA (Homo sapiens (Human), UniProt P22749 23-145, limits assumed)
T2 construct: Expressed in 293T cells, culture supernatant used; not shown: His tag
T2 chain: T1 sequence (looked up) with R75A, R78A, R82A, R86A

T3: granulysin mutant RRRRR94/97/100/102/104AAAAA (Homo sapiens (Human), UniProt P22749 23-145, limits assumed)
T3 construct: not shown: His tag
T3 chain: T1 sequence (looked up) with R72A, R75A, R78A, R80A, R82A

B1: 16.7Chi (antibody, V domains shown)
VH: EVLLQQSGPELVKPGASVKISCKASGYTFTDYNMDWVKQSHGKSLEWIGDINPNVGDTIYNQKFKGKATLTVDKSSSTAYMELRSLTSEDSAVYYCVRSDDDYSWFAHWGQGTLVTVSA
VL: SIVMTQTPKFLLVSAGDRVTITCKASQSVSNDVAWYQQKSGQSPKLLIYYASNRYTGVPDRFTGSGYGTDFTFTISTVQAELAVYFCQQDSSSPLTFGAGTKLELKR
notes: also called chimeric antibody of the variable region of M16.7 fused with the constant region of human IgG1
B2: 106.17Chi (antibody, V domains shown)
VH: B1 VH with S21P, V55N, K63N, G66D, D73N, S91T, D102N, A107T, H108Y
VL: B1 VL
notes: also called chimeric antibody of the variable region of M106.17 fused with the constant region of human IgG1
B3: GP42-09 (antibody, V domains shown)
VH: QVKLQQSGAELVRPGALVKLSCKASGFNIKDYYMHWVKQRPEQGLEWIGWIDPENGNTIYDPKFQGKASITADTSSNTAYLQLSSLTSEDSAVYFCARVGDDYDGDFDYWGQGTTVTVSS
VL: DIELTQSPASLAVSLGQRATISCRASESVDSYGDSFMHWYQQKPGQPPKLLIYRASNLESGIPARFSGSGSRTDFTLTINPVEADDVATYYCQQSYEDPYTFGGGTKLEIKR
notes: Phage display clone
B4: GP42-10 (antibody, V domains shown)
VH: QVKLQQSGPDLVKPGSLVKISCKASGYTFSNYDINWVKQRPGQGLEWIGWIDPGNGRTKYNEKFEDKATLTADKSSSTAYMQLSSLTSEDSAVYFCARVGDDYDGDFDYWGQGTTVTVSS
VL: DIELTQSPTIMSASPGEKVTMTCRASESVDSYGNSFMHWYQQKPGLPPKLLIYRASNLESGIPARFSGSGSRTDFTLTINPVEADDVATYYCQQSNEYPYTFGGGTKLEIKR
notes: Phage display clone
B5: GP31-52 (antibody, V domains shown)
VH: B4 VH with K3Q, S16A, T28S, S30T, E65T, D66G, T69S, Q82V, D90N, D106G
VL: DIELTQSPSIMAASLGQKVTMTCSASSSVSSSYLHWYQQKSGASPKPLIHRTSNLASGVPARFSGSGSGNSYSLTISSMEAEDVATYYCFQGSGYPYTFGGGTKLEIKR
notes: Phage display clone
B6: GP42-58 (antibody, V domains shown)
VH: B4 VH with S16A, S30T, N31S, N55D, D66G, T69S, Q82L, E89D, D90N, D106G
VL: B4 VL with T9A, M21I, T22S, R24S, H38N, L46Q, A64V, S69G
notes: Phage display clone
B7: 34.22Chi (antibody, V domains shown)
VH: QVQLQQSGAELVRPGVSVKISCKGSGYTFTDYSIHWVKQSHAKSLEWIGVISSYYGDARHNQKFKGKATMTVDKSSSTAYMELARLTSEDSAIYYCARDGYYGYAMDYWGQGTSVTVSS
VL: DVVMTQTPLSLPVSLGDQASISCRSTQSLVHSNGNTYLHWYLQKPGQSPKLLIYKVSYRFSGVPDRFSGSGSGTDFTLKISRVEAEDLGVYFCSQSTHVPFTFGSGTKLEIKR
notes: also called chimeric antibody of the variable region of M34.22 fused with the constant region of human IgG1
B8: GP42-27 (antibody, V domains shown)
VH: QVKLQESGAELVRPGTSVKISCKASGYTFTNYDINWVKQRPGQGLEWIGWIDPGDGRTKYNENFKDKASLTADKSSSTAYMQLSSLTSEDSAVYYCARVGDDYDGGFDYWGQGTTVTVSS
VL: B3 VL with D34N, K49R, R54A, L58Q, I110L
notes: Phage display clone
B9: BGF2A2-92 (antibody, V domains shown)
VH: EVQLVESGGGLVQPGGSLKLSCAASGFTFSDYYMYWVRQTPEKRLEWVATISDGGDYTYYPDSVKGRFTISRDNAKNNLYLQMSSLKSEDTAMYYCAREGDYYGPFAYWGQGTTLTVSS
VL: DIVMTQSQKFMSTSVGDRVSITCKASQNVGTAVAWYQQKPGQSPKALIYSASYRYSGVPDRFTGSGSGTDFTLTISNVQSEDLAEYFCQQYNSYPYTFGGGTKLEIKR
notes: Phage display clone
B10: BGF33-19 (antibody, V domains shown)
VH: QVQLQQSGAELVRPGTSVKVSCKASGYAFTNYLIEWVKQRPGQGLEWIGVINPGSGGTNYNEKFKGKATLTADKSSSTAYMQLSSLTSDDSAVYFCAREGEKHSYYFDYWGQGTTLTVSS
VL: B3 VL with E3V, R54L, I62V, N80D, V87A, S95N, Y96N, Y100P
notes: Phage display clone

The target in the first experiment is T1, denatured granulysin (10His tag, …). The experiment can be described thus: blot of denaturing SDS-PAGE probed with the antibody, anti-human-HRP.
From the text: The expressed granulysin may be run on a denatured SDS-PAGE and then probed with the test antibodies. Whether the test antibodies bind to the denatured granulysin can be detected using a secondary antibody (containing a reporter group; e.g., anti-human-HRP).
As to B1, the binding result is reported as “no binding”.

Consider B2, for which the binding result is listed as “no binding”.

Take B3: the binding result is “no binding”.

B4: the binding result is “no binding”.

As to B5, the binding result is reported as “no binding”.

Consider B6, for which the binding result is “no binding”.

In the case of B7, the binding result was “no binding”.

As to B8, the binding result was “no binding”.

The next experiment has as its target T2, granulysin mutant RRRR97/100/104/108AAAA. The experiment can be described thus: ELISA, antibody coated, His-tagged mutant granulysin detected with anti-His-HRP. (An ELISA detects its analyte on a solid surface through an enzyme-linked reagent.)
Method: (§1) To the antibody-coated plates, 200 μl of serially diluted samples (wild-type or mutant granulysin) were added to each well. The solutions were then incubated at 37° C. for 2 hours.
(§2) After washing to remove the unbound proteins, the bound proteins that were produced with His-tag (or any other tag or a fusion protein), can be detected with an anti-H is antibody coupled with HRP (for example, Sigma, A7058) at an appropriate dilution (e.g., 1:2000). The secondary antibodies were allowed to bind to the bound proteins by incubation at 37° C. for 2 hours (or any suitable duration and temperatures).
As to B9, the binding result is listed as “no binding”.

Regarding B10, the binding result is on record as “no binding”.

Another experiment deals with T3, granulysin mutant …. The description is as above.
Method: as §1, §2
Regarding B10, the binding result is recorded as “no binding”.

Values taken from patent US20140186352A1 (DEVELOPMENT CENTER FOR BIOTECHNOLOGY, published 2014).
